Source: patent EP2646050B1 (mAB-Factory GmbH, dated 2016)

Tests used:
Test in all cases: peptide SPOT membrane
[1] = biological target: 15mer peptide 56 of H5 (A/Anhui/1/2005) (Influenza A virus A/Anhui/1/2005 (H5N1))
[2] = biological target: 15mer peptide 55 of H5 (A/Anhui/1/2005) (Influenza A virus A/Anhui/1/2005 (H5N1))
[3] = biological target: 15mer peptide 57 of H5 (A/Anhui/1/2005) (Influenza A virus A/Anhui/1/2005 (H5N1))

Measured: binding result

B1: scFv-murine IgG1 Fc fusion of clone 8 (JM6_SC-D3) (Fc fusion)
chain: MAAVTLDESGGGLQKPGGGLSLVCKASGFPFSSYSMQWVRQAPGKGLEWVAGIGNAGSYTGYGAAVKGRATISRDNGQSTVRLQLNNLRAEDTGTYYCAKSAYAGSCAGCVDSIDAWGHGTEVMVSSGSASAPKLEEGEFSEARVALTQPSSVSANPGETVKITCSGDDSWYGWYQQKSPGSAPVTVIYYNNNRPSDIPLRFSGSTSGSTSTLTITGVQADDEAVYFCGSWDRSSGAGIFGAGTTLTVLGAA
no binding: [1] | [2] | [3]
